Our source for the activity (luciferase activity) values is US12043852.

The target in the series is omega-dCas9 clone 4 (evolved SpCas9) D10A,H840A,E1219V; residues I122 and D182 also mutated, substitutions not stated (Streptococcus pyogenes) (UniProt Q99ZW2). In words: cell_activity. As to conditions: E. coli activation.

For the sequence “GGAGCCCACCGAGUACCUGG / GGAGCCCACCGAGTACCTGGAGG / CCTCCAGGTACTCGGTGGGCTCC [Doench 2 sgRNA (spacer) ; Doench 2 target, AGG PAM]”, the activity (luciferase activity) (PAM AGG) turned out to be 238.

The sequence “GGAGCCCACCGAGUACCUGG / GGAGCCCACCGAGTACCTGGGTG / CACCCAGGTACTCGGTGGGCTCC [Doench 2 sgRNA (spacer) ; Doench 2 target, GTG PAM]” yielded an activity (luciferase activity) (PAM GTG) of 120.

As for “GGAGCCCACCGAGUACCUGG / GGAGCCCACCGAGTACCTGGGAG / CTCCCAGGTACTCGGTGGGCTCC [Doench 2 sgRNA (spacer) ; Doench 2 target, GAG PAM]”, the activity (luciferase activity) (PAM GAG) was determined as 186.
